Results as given in paper PMC9573943, “Contribution of the 12–17 hydrophobic region of islet amyloid polypeptide in self-assembly and cytotoxicity” (Frontiers in Molecular Biosciences, 2022).
Bridge positions count the residues as written; N and C are the ends. Ends that are not written are not given here.

What was measured:
INS-1E cells [1] = test: Cell viability by resazurin reduction; type: cell-based, Rat; details: freshly dissolved peptide up to 50 μM, 24 h, at least five assays
Experimental: (§1) Rat INS-1E cells were cultured in treated black-wall clear-bottom 96-well plates at a density of 25,000 cell/well in RPMI-1640 medium supplemented with 10% FBS, 2 mM L-glutamine, 100 U/ml penicillin, 100 μg/ml streptomycin, 10 mM HEPES, 1 mM sodium pyruvate and 50 μM β-mercaptoethanol. After 48 h of incubation at 37°C in 5% CO2, cells were treated with 50 μL of peptide freshly dissolved in 20 mM Tris-HCl, pH 7.4. […] Cell viability (%) was calculated from the ratio of the fluorescence of the treated cells to the vehicle-treated cells. Data of at least five assays performed with different peptide lots were averaged and expressed as the mean ± S.D. Statistical analysis was performed using Student’s t test, and statistically significant difference was established at (*) p < 0.05; (**) p < 0.005; (***) p < 0.0005. For Live/Dead viability assay, cells were plated in 12-well plates at density of 250,000 cell/well for 48 h before treatment with 25 μM peptide.

[2] = Peptide self-assembly under fully quiescent conditions (CD, ThT and ANS fluorescence, TEM, AFM); type: physicochemical; details: 50 μM peptide; for Assemblies observed by TEM after 48 h incubation: negative stain TEM; for Overall effect of the substitution on amyloid formation, in words: CD, ThT, ANS, TEM, compared with unmodified IAPP; for Incubation time at which the random coil to β-sheet conformational transition is seen (far-UV CD) / Secondary conformation / conformational transition over incubation (far-UV CD), in words: fully quiescent; for Incubation time at which the random coil to β-sheet conformational transition is seen (far-UV CD): microtubes, diluted to 25 μM for CD; for ThT fluorescence of incubated peptide, in words: diluted to 25 μM with 40 μM ThT; for Secondary conformation / conformational transition over incubation (far-UV CD), in words: up to 7 days
Experimental: Solutions were prepared by dissolving the peptide at a concentration of 50 μM in 20 mM Tris-HCl, pH 7.4, and were incubated at room temperature without agitation in 1.5 ml Eppendorf microtubes. For IAPP12-17, the lyophilized peptide was dissolved in 20 mM acetate pH 6.5 in the presence of 3% DMSO, or HFIP, at a final concentration of 500 μM and the peptide solution was incubated at 37 °C under constant rotational agitation.
At the indicating time of incubation, peptide solutions were diluted to 25 μM in presence of 40 μM ThT, or 25 μM 8-anilino-1-naphthalenesulfonic acid (ANS). Fluorescence was measured in 10-mm pathlength microcells using a PTI QuantaMaster spectrofluorometer. For ThT, excitation was set at 440 nm, and the emission spectrum from 450 to 550 nm was recorded. For ANS, the excitation was set at 355 nm, and the emission scan was recorded from 385 to 585 nm.
After incubation, peptide solutions were diluted in water to 25 μM and incorporated into a 2-mm path length quartz cell. For IAPP12-17, the solution was diluted to 150 μM. Far-UV CD spectra were recorded from 190 to 260 nm using a Jasco J-815 CD spectropolarimeter at 25°C. The wavelength step was set at 0.5 nm with an average time of 10 s per scan at each wavelength. Spectra were background-subtracted with buffer solution. Raw data were converted to mean residue ellipticity (MRE): MRE=Mean residue weight (g/mol)X CD signal (deg)/10 X pathlength (cm) X peptide concentration (g/mL)
After incubation, peptide solutions were diluted to 10 μM, or 100 μΜ for IAPP12-17, before being applied on glow-discharged carbon films on 300-mesh copper grids. Samples were adsorbed and negatively stained with 1.5% uranyl formate for 45 s. Images were recorded using a FEI Tecnai G2 Spirit Twin microscope operating at 120 kV and equipped with a Gatan Ultrascan scan 4,000 4k × 4k CCD camera system.
After incubation, peptide solutions were diluted in 1% acetic acid to a concentration of 7.5 μΜ. […] Images were recorded using Veeco/Bruker multimode AFM instrument using ScanAsyst-air mode with a silicon tip (2–12 nm tip radius, 0.4 N/m force) on a nitride lever. Images were taken at 0.977 Hz and 512 scan/min.

[3] = Kinetics of amyloid formation monitored by ThT fluorescence; type: physicochemical; details: 40 μM ThT, 20 mM Tris-HCl pH 7.4, 25°C, no agitation
Experimental: Aggregation mixtures were prepared by dissolving the lyophilized peptide at a concentration of 50 μM in 20 mM Tris-HCl, pH 7.4. Assays were performed at 25°C without stirring in sealed black-wall clear-bottom 96-well nonbinding surface plates with 100 μL/well. Final peptide concentrations were 12.5 and 25 μM, and thioflavin T (ThT) concentration was fixed at 40 μM. Fluorescence was measured every 10 min (excitation: 440 nm, emission: 485 nm) and data from triplicate wells were averaged, corrected by subtracting the blank control, and plotted as ThT fluorescence vs. time. Data were normalized with maximum ThT fluorescence intensity obtained for unmodified IAPP. Data were fitted to a sigmoidal Boltzmann model: Y=Yo+(Ymax−Yo)/1+e^−(T−T50)/ K where T 50 is the time required to reach half of the maximum fluorescence intensity, k is the apparent first-order constant, and Y max and Y 0 are the maximum and initial ThT fluorescence values. Lag time corresponds to T50 - 2/k. Data of at least six assays performed with different peptide lots were averaged and expressed as the mean ± S.D. Statistical analysis was performed using Student’s t test, and statistically significant difference between IAPP and analogs was established at (*) p < 0.05; (**) p < 0.005; (***) p < 0.0005.

INS-1E cells [4] = test: Live/Dead viability assay (calcein-AM / ethidium homodimer-1, fluorescence microscopy); type: cell-based, Rat; details: 25 μM freshly solubilized peptide, 24 h, calcein-AM (green, live) and ethidium homodimer-1 (red, dead)
Experimental: as §1

[5] = 20 mM Tris-HCl pH 7.4, quiescent
[6] = 20 mM Tris-HCl pH 7.4, room temperature

Row | Substance | Cytotoxicity compared with unmodified IAPP, in words (INS-1E cells [1]) | Assemblies observed by TEM after 48 h incubation [2, 5] | Overall effect of the substitution on amyloid formation, in words [2, 5] | Incubation time at which the random coil to β-sheet conformational transition is seen (far-UV CD) [2, 6] | ThT fluorescence of incubated peptide, in words [2, 5] | Secondary conformation / conformational transition over incubation (far-UV CD), in words [2, 6] | also measured
1 | A13G: full-length IAPP with Ala13 substituted by Gly (KCNTATCATQRLGNFLVHSSNNFGAILSSTNVGSNTY; disulfide 2-7; ends not checked; UniProt P10997 34-70, looked up, variant A13G) | higher cytotoxicity compared to unmodified IAPP | presence of fibrillar aggregates | accelerates IAPP amyloid self-assembly | ≤ 6 h |  |  | 
2 | A13P: full-length IAPP with Ala13 substituted by Pro (KCNTATCATQRLPNFLVHSSNNFGAILSSTNVGSNTY; disulfide 2-7; ends not checked; UniProt P10997 34-70, looked up, variant A13P) | increased the cytotoxicity of IAPP at 12.5 and 25 μM | Prototypical fibrils | accelerated amyloid formation | 4 h |  |  | Incubation time at which ThT and ANS positive signal arises ([2]; 20 mM Tris-HCl pH 7.4, quiescent, diluted to 25 μM with 40 μM ThT or 25 μM ANS): 6 h
3 | F15P: full-length IAPP with Pro at position Phe15 (KCNTATCATQRLANPLVHSSNNFGAILSSTNVGSNTY; disulfide 2-7; ends not checked; UniProt P10997 34-70, looked up, variant F15P) |  | absence fibrillar aggregates |  |  |  |  | Assemblies observed by AFM after 96 h incubation ([2]; 20 mM Tris-HCl pH 7.4, room temperature, no agitation, 96 h): typical fibrils
4 | L12A: full-length IAPP with Leu→Ala substitution at position 12 (KCNTATCATQRAANFLVHSSNNFGAILSSTNVGSNTY; disulfide 2-7; ends not checked; UniProt P10997 34-70, looked up, variant L12A) | reduced IAPP toxicity | long and twisted fibrils |  |  | absence of a ThT-signal | remained mainly under a random coil structure after a week of incubation | Increase of ThT fluorescence signal ([3]; 12.5 μM peptide): no increase of ThT fluorescence signal could be detected; Lag time of amyloid formation ([3]; 25 μM peptide, nonbinding surface 96-well plate, read every 10 min, lag time = T50 - 2/k, mean ± S.D. of at least six assays): 13.5 ± 4.1 h; ANS fluorescence of incubated peptide, in words ([2]; 20 mM Tris-HCl pH 7.4, quiescent, diluted to 25 μM with 25 μM ANS): low ANS fluorescence; Cell death in Live/Dead assay, in words (INS-1E cells [4]): decreased toxicity compared to unmodified IAPP
5 | L16P: full-length IAPP with Leu16 substituted by Pro (KCNTATCATQRLANFPVHSSNNFGAILSSTNVGSNTY; disulfide 2-7; ends not checked; UniProt P10997 34-70, looked up, variant L16P) | less cytotoxic than unmodified IAPP |  | completely inhibited amyloid formation |  | absence of a ThT and ANS signal | random coil conformation observed after 7 days incubation | 
6 | N14P: full-length IAPP with Pro at position Asn14 (KCNTATCATQRLAPFLVHSSNNFGAILSSTNVGSNTY; disulfide 2-7; ends not checked; UniProt P10997 34-70, looked up, variant N14P) |  |  |  | 24 h |  |  | Assemblies observed by AFM after 24 h incubation ([2]; 20 mM Tris-HCl pH 7.4, room temperature, no agitation, 24 h): dense network of fibrils
